Experimental data taken from patent US20240400627A1 (YALE UNIVERSITY, published 2024).

Molecular target: T1, Nicotinamide Nucleotide Transhydrogenase (NNT), endogenous, mouse kidney (mouse, UniProt Q61941 44-1086)
T1 construct: Inner mitochondrial membrane protein; absent in C57BL/6J mice (deletion of exons 7-11 of Nnt)
T1 sequence (looked up): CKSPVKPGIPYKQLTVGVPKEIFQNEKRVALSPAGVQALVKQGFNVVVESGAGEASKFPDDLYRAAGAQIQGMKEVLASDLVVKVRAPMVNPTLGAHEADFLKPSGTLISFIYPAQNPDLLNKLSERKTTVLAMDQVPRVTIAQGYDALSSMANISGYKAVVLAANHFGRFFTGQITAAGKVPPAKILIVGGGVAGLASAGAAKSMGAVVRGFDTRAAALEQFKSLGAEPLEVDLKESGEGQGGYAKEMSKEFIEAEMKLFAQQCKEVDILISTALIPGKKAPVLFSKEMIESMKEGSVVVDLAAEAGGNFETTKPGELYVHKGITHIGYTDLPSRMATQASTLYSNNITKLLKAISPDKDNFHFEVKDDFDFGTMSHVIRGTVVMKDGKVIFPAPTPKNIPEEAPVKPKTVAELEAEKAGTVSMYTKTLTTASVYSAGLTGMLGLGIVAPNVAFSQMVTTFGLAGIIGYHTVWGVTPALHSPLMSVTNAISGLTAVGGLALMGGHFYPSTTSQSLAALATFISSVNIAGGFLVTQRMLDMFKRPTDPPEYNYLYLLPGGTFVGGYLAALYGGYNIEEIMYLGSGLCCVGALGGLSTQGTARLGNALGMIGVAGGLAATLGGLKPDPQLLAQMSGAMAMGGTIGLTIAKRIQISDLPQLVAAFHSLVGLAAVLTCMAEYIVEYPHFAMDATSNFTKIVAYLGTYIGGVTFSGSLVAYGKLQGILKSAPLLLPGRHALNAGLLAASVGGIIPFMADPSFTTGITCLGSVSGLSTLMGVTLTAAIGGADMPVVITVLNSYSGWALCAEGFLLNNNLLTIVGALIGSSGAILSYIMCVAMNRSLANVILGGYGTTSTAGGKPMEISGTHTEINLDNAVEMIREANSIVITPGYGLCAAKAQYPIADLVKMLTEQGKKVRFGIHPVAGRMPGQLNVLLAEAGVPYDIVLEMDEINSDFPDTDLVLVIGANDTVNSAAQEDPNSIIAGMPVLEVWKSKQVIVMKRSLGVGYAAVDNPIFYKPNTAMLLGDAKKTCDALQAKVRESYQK
Experiment: anti-HA immunoprecipitation from mouse kidney lysates, immunoblot
Experimental: Homogenates were then sonicated for 30 seconds (2×15 second bursts at 40% power) and incubated for 45 minutes on ice to complete protein solubilization. Lysates were centrifuged at 8000 rpm for 15 minutes. Protein concentrations were measured with the Protein Assay Dye Reagent Concentrate (catalog #5000006, Bio-Rad). Anti-HA magnetic beads (catalog #88837, ThermoFischer Scientific) were equilibrated in lysis buffer (50 μL beads per reaction in 500 μl of lysis buffer) for 10 minutes at room temperature on a rocking shaker, and then incubated with a total of 4 mg of tissue lysate per sample, overnight, at 4° C. Following four 5-minute washes with 1 ml lysis buffer, the dynabeads were magnetically recovered and precipitated proteins were eluted in 60 μl of 2× Laemmli sample buffer (catalog #1610747, Bio-Rad) with 300 mM Dithiothreitol (DTT). One-third of the eluted proteins (20 μl) was loaded per sample per gel for immunoblotting.
The alleles required to produce the Pkd1-KO+/−CTT mice were moved to this NNT-deficient background (J-Pkd1-KO and J-Pkd1-KO+CTT). […] No NNT was detected in glomeruli or Bowman's capsule. This pattern reproduced the one reported in the Human Protein Atlas (Uhlen, et al., Science Vol. 347, 1260419 (2015)). […] NNT was only detected in immunoprecipitates from “N” cystic mice that express CTT and not in those derived from N-Pkd1-KO mice that express NNT but not CTT.

binding result: binds
B1: 2HA-PC1-CTT (final 200 amino acids of human polycystin-1, aa 4102-4302, with an N-terminal 2xHA epitope tag) (other, not shown: small tags and cut ends)
chain: VILRWRYHALRGELYRPAWEPQDYEMVELFLRRLRLWMGLSKVKEFRHKVRFEGMEPLPSRSSRGSKVSPDVPPPSAGSDASHPSTSSSQLDGLSVSLGRLGTRCEPEPSRLQAVFEALLTQFDRLNQATEDVYQLEQQLHSLQGRRSSRAPAGSSRGPSPGLRPALPSRLARASRGVDLATGPSRTPLRAKNKVHPSST
notes: Expressed from a BAC transgene in renal epithelial cells of Pkd1-KO+CTT mice; detected as a 37-kDa HA-tagged band; also called 2HA-PKD1-CTT; polycystin-1 C-terminal tail
